In patent US20060160174A1 (published 2006):

T1: soluble p97 (amino acids 20-710 of human p97 precursor), 6x his tag (human, UniProt P08582 20-710)
T1 construct: range 20-710; also called p97 melanotransferrin; recombinant p97; not shown: 6x his tag from vector pSecTag2
T1 sequence: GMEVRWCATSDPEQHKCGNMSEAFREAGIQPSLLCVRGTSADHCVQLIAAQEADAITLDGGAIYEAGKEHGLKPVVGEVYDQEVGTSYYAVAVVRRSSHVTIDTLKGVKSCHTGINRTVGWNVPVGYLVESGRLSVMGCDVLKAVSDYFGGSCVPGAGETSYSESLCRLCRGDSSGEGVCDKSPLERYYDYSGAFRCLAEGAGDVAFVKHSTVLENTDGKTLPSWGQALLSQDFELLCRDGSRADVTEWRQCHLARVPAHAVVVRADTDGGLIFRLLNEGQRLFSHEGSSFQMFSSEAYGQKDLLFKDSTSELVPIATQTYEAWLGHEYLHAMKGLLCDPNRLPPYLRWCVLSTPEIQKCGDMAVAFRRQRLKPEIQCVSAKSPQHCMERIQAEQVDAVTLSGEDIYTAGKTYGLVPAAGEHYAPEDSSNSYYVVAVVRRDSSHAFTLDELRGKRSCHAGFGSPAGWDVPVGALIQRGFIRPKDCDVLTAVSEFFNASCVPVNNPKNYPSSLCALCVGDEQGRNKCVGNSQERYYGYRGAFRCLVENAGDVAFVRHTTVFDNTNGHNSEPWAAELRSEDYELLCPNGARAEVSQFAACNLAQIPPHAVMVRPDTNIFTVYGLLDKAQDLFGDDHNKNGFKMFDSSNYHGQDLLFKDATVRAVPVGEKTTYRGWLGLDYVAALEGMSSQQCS


Experiments:
[1] = target: T1, soluble p97 (amino acids 20-710 of …); assay: SPR, Biacore 2000, 25 C; p97 immobilised on CM5 chip, scFv fusion injected; 1:1 model
[2] = target: T1, soluble p97 (amino acids 20-710 of …); assay: solid-phase binding assay on wells coated with soluble p97; crude refold normalised on beta-lactamase activity; nitrocefin read-out, OD 490 nm [a]
[3] = target: T1, soluble p97 (amino acids 20-710 of …); assay: SEC binding assay with purified p97 (discussion of the example)

Row | Binder | Kd [1] [nM] | koff [1] [s⁻¹] | kon [1] [M⁻¹ s⁻¹] | binding result [2] | percent of purified protein bound to antigen [3] [%]
1 | parental L49-sFv-bL fusion protein FP95 (scFv, also called L49-scFv-bL; parental molecule) scFv: MEVQLQESGPSLVKPSQTLSLTCSVTGDSITSGYWNWIRKFPGNKLEYMGYISDSGITYYNPSLKSRISITRDTSKNQYYLQLNFVTAEDTATYNCARRTLATYYAMDYWGQGTSVTVSSGSTSGSGKPGSGEGSTKGDFVMTQTPLSLPVSLGDQASISCRASQSLVHSNGNTYLHWYLQKPGQSPKLLIYRVSNRFSGVPDRFSGSGSGTDFTLKISRVEAEDLGVYFCSQSTHVPPTFGGGTKLEIKRTPVSEKQLAEVVANTITPLMKAQSVPGMAVAVIYQGKPHYYTFGKADIAANKPVTPQTLFELGSISKTFTGVLGGDAIARGEISLDDAVTRYWPQLTGKQWQGIRMLDLATYTAGGLPLQVPDEVTDNASLLRFYQNWQPQWKPGTTRLYANASIGLFGALAVKPSGMPYEQAMTTRVLKPLKLDHTWINVPKAEEAHYAWGYRDGKAVRVSPGMLDAQAYGVKTNVQDMANWVMANMAPENVADASLKQGIALAQSRYWRIGSMYQGLGWEMLNWPVEANTVVETSFGNVALAPLPVAEVNPPAPPVKASWVHKTGSTGGFGSYVAFIPEKQIGIVMLANTSYPNPARVEAAYHILEALQ | 2.31 | 0.0007 | 304000 |  | 
2 | L49-sFv-bL mutant FP945 (F H82B S) (scFv) scFv: MEVQLQESGPSLVKPSQTLSLTCSVTGDSITSGYWNWIRKFPGNKLEYMGYISDSGITYYNPSLKSRISITRDTSKNQYYLQLNSVTAEDTATYNCARRTLATYYAMDYWGQGTSVTVSSGSTSGSGKPGSGEGSTKGDFVMTQTPLSLPVSLGDQASISCRASQSLVHSNGNTYLHWYLQKPGQSPKLLIYRVSNRFSGVPDRFSGSGSGTDFTLKISRVEAEDLGVYFCSQSTHVPPTFGGGTKLEIKRTPVSEKQLAEVVANTITPLMKAQSVPGMAVAVIYQGKPHYYTFGKADIAANKPVTPQTLFELGSISKTFTGVLGGDAIARGEISLDDAVTRYWPQLTGKQWQGIRMLDLATYTAGGLPLQVPDEVTDNASLLRFYQNWQPQWKPGTTRLYANASIGLFGALAVKPSGMPYEQAMTTRVLKPLKLDHTWINVPKAEEAHYAWGYRDGKAVRVSPGMLDAQAYGVKTNVQDMANWVMANMAPENVADASLKQGIALAQSRYWRIGSMYQGLGWEMLNWPVEANTVVETSFGNVALAPLPVAEVNPPAPPVKASWVHKTGSTGGFGSYVAFIPEKQIGIVMLANTSYPNPARVEAAYHILEALQ |  |  |  | binds | 
3 | L49-sFv-bL mutant FP950 (N H91 Y) (scFv) scFv: MEVQLQESGPSLVKPSQTLSLTCSVTGDSITSGYWNWIRKFPGNKLEYMGYISDSGITYYNPSLKSRISITRDTSKNQYYLQLNFVTAEDTATYYCARRTLATYYAMDYWGQGTSVTVSSGSTSGSGKPGSGEGSTKGDFVMTQTPLSLPVSLGDQASISCRASQSLVHSNGNTYLHWYLQKPGQSPKLLIYRVSNRFSGVPDRFSGSGSGTDFTLKISRVEAEDLGVYFCSQSTHVPPTFGGGTKLEIKRTPVSEKQLAEVVANTITPLMKAQSVPGMAVAVIYQGKPHYYTFGKADIAANKPVTPQTLFELGSISKTFTGVLGGDAIARGEISLDDAVTRYWPQLTGKQWQGIRMLDLATYTAGGLPLQVPDEVTDNASLLRFYQNWQPQWKPGTTRLYANASIGLFGALAVKPSGMPYEQAMTTRVLKPLKLDHTWINVPKAEEAHYAWGYRDGKAVRVSPGMLDAQAYGVKTNVQDMANWVMANMAPENVADASLKQGIALAQSRYWRIGSMYQGLGWEMLNWPVEANTVVETSFGNVALAPLPVAEVNPPAPPVKASWVHKTGSTGGFGSYVAFIPEKQIGIVMLANTSYPNPARVEAAYHILEALQ |  |  |  | binds | 
4 | L49-sFv-bL double mutant FP965 (K H39 Q, N H91 Y) (scFv) scFv: MEVQLQESGPSLVKPSQTLSLTCSVTGDSITSGYWNWIRQFPGNKLEYMGYISDSGITYYNPSLKSRISITRDTSKNQYYLQLNFVTAEDTATYYCARRTLATYYAMDYWGQGTSVTVSSGSTSGSGKPGSGEGSTKGDFVMTQTPLSLPVSLGDQASISCRASQSLVHSNGNTYLHWYLQKPGQSPKLLIYRVSNRFSGVPDRFSGSGSGTDFTLKISRVEAEDLGVYFCSQSTHVPPTFGGGTKLEIKRTPVSEKQLAEVVANTITPLMKAQSVPGMAVAVIYQGKPHYYTFGKADIAANKPVTPQTLFELGSISKTFTGVLGGDAIARGEISLDDAVTRYWPQLTGKQWQGIRMLDLATYTAGGLPLQVPDEVTDNASLLRFYQNWQPQWKPGTTRLYANASIGLFGALAVKPSGMPYEQAMTTRVLKPLKLDHTWINVPKAEEAHYAWGYRDGKAVRVSPGMLDAQAYGVKTNVQDMANWVMANMAPENVADASLKQGIALAQSRYWRIGSMYQGLGWEMLNWPVEANTVVETSFGNVALAPLPVAEVNPPAPPVKASWVHKTGSTGGFGSYVAFIPEKQIGIVMLANTSYPNPARVEAAYHILEALQ | 1.91 | 0.000765 | 400000 |  | 100
5 | 940 (scFv, also called FP940; L49-sFv-bL mutant FP940 (Y H78 A)) MEVQLQESGPSLVKPSQTLSLTCSVTGDSITSGYWNWIRKFPGNKLEYMGYISDSGITYYNPSLKSRISITRDTSKNQAYLQLNFVTAEDTATYNCARRTLATYYAMDYWGQGTSVTVSSGSTSGSGKPGSGEGSTKGDFVMTQTPLSLPVSLGDQASISCRASQSLVHSNGNTYLHWYLQKPGQSPKLLIYRVSNRFSGVPDRFSGSGSGTDFTLKISRVEAEDLGVYFCSQSTHVPPTFGGGTKLEIKRTPVSEKQLAEVVANTITPLMKAQSVPGMAVAVIYQGKPHYYTFGKADIAANKPVTPQTLFELGSISKTFTGVLGGDAIARGEISLDDAVTRYWPQLTGKQWQGIRMLDLATYTAGGLPLQVPDEVTDNASLLRFYQNWQPQWKPGTTRLYANASIGLFGALAVKPSGMPYEQAMTTRVLKPLKLDHTWINVPKAEEAHYAWGYRDGKAVRVSPGMLDAQAYGVKTNVQDMANWVMANMAPENVADASLKQGIALAQSRYWRIGSMYQGLGWEMLNWPVEANTVVETSFGNVALAPLPVAEVNPPAPPVKASWVHKTGSTGGFGSYVAFIPEKQIGIVMLANTSYPNPARVEAAYHILEALQ |  |  |  | binds | 
6 | L49-sFv-bL mutant FP930 (K H39 Q) (scFv) scFv: MEVQLQESGPSLVKPSQTLSLTCSVTGDSITSGYWNWIRQFPGNKLEYMGYISDSGITYYNPSLKSRISITRDTSKNQYYLQLNFVTAEDTATYNCARRTLATYYAMDYWGQGTSVTVSSGSTSGSGKPGSGEGSTKGDFVMTQTPLSLPVSLGDQASISCRASQSLVHSNGNTYLHWYLQKPGQSPKLLIYRVSNRFSGVPDRFSGSGSGTDFTLKISRVEAEDLGVYFCSQSTHVPPTFGGGTKLEIKRTPVSEKQLAEVVANTITPLMKAQSVPGMAVAVIYQGKPHYYTFGKADIAANKPVTPQTLFELGSISKTFTGVLGGDAIARGEISLDDAVTRYWPQLTGKQWQGIRMLDLATYTAGGLPLQVPDEVTDNASLLRFYQNWQPQWKPGTTRLYANASIGLFGALAVKPSGMPYEQAMTTRVLKPLKLDHTWINVPKAEEAHYAWGYRDGKAVRVSPGMLDAQAYGVKTNVQDMANWVMANMAPENVADASLKQGIALAQSRYWRIGSMYQGLGWEMLNWPVEANTVVETSFGNVALAPLPVAEVNPPAPPVKASWVHKTGSTGGFGSYVAFIPEKQIGIVMLANTSYPNPARVEAAYHILEALQ |  |  |  | binds | 
7 | L49-sFv-bL double mutant FP960 (F H82B S, N H91 Y) (scFv) scFv: MEVQLQESGPSLVKPSQTLSLTCSVTGDSITSGYWNWIRKFPGNKLEYMGYISDSGITYYNPSLKSRISITRDTSKNQYYLQLNSVTAEDTATYYCARRTLATYYAMDYWGQGTSVTVSSGSTSGSGKPGSGEGSTKGDFVMTQTPLSLPVSLGDQASISCRASQSLVHSNGNTYLHWYLQKPGQSPKLLIYRVSNRFSGVPDRFSGSGSGTDFTLKISRVEAEDLGVYFCSQSTHVPPTFGGGTKLEIKRTPVSEKQLAEVVANTITPLMKAQSVPGMAVAVIYQGKPHYYTFGKADIAANKPVTPQTLFELGSISKTFTGVLGGDAIARGEISLDDAVTRYWPQLTGKQWQGIRMLDLATYTAGGLPLQVPDEVTDNASLLRFYQNWQPQWKPGTTRLYANASIGLFGALAVKPSGMPYEQAMTTRVLKPLKLDHTWINVPKAEEAHYAWGYRDGKAVRVSPGMLDAQAYGVKTNVQDMANWVMANMAPENVADASLKQGIALAQSRYWRIGSMYQGLGWEMLNWPVEANTVVETSFGNVALAPLPVAEVNPPAPPVKASWVHKTGSTGGFGSYVAFIPEKQIGIVMLANTSYPNPARVEAAYHILEALQ | 1.75 | 0.000638 | 364000 |  | 100
8 | 935 (scFv, also called FP935; L49-sFv-bL mutant FP935 (Y H47 W)) MEVQLQESGPSLVKPSQTLSLTCSVTGDSITSGYWNWIRKFPGNKLEWMGYISDSGITYYNPSLKSRISITRDTSKNQYYLQLNFVTAEDTATYNCARRTLATYYAMDYWGQGTSVTVSSGSTSGSGKPGSGEGSTKGDFVMTQTPLSLPVSLGDQASISCRASQSLVHSNGNTYLHWYLQKPGQSPKLLIYRVSNRFSGVPDRFSGSGSGTDFTLKISRVEAEDLGVYFCSQSTHVPPTFGGGTKLEIKRTPVSEKQLAEVVANTITPLMKAQSVPGMAVAVIYQGKPHYYTFGKADIAANKPVTPQTLFELGSISKTFTGVLGGDAIARGEISLDDAVTRYWPQLTGKQWQGIRMLDLATYTAGGLPLQVPDEVTDNASLLRFYQNWQPQWKPGTTRLYANASIGLFGALAVKPSGMPYEQAMTTRVLKPLKLDHTWINVPKAEEAHYAWGYRDGKAVRVSPGMLDAQAYGVKTNVQDMANWVMANMAPENVADASLKQGIALAQSRYWRIGSMYQGLGWEMLNWPVEANTVVETSFGNVALAPLPVAEVNPPAPPVKASWVHKTGSTGGFGSYVAFIPEKQIGIVMLANTSYPNPARVEAAYHILEALQ |  |  |  | binds | 
